Among the data in doi:10.1101/2020.09.01.276469 are Kd and fold loss of binding against the wild type 1-178 TPX2 construct values, retold here.

Broadly, the Kd is the equilibrium constant for the complex coming apart. A high value points to weaker binding.

Common to all, as to experiment: BLI
For orientation: Biolayer interferometry detects binding as a change in optical thickness at a sensor tip.

In assay [1] the target is triple-mutant TPX2 (TM-TPX2) (Xenopus laevis) (UniProt Q6NUF4).
The target in assay [2] is TPX2 aa1-178Δ123 (TPX2 1-178 with the KKLK motif mutated) (Xenopus laevis) (UniProt Q6NUF4).
Assay [3] concerns the target double-mutant TPX2 (DM-TPX2) (Xenopus laevis) (UniProt Q6NUF4).
Assay [4] has as its target TPX2 C-terminus (a.a. 480-716) (Xenopus laevis) (UniProt Q6NUF4).

A value given as a limit tells only on which side of the number the result lay.

Sequence of importin-αΔIBB (importin-α without the importin-β binding domain) (domain or fragment) (P52170 71-522, stated change not applied): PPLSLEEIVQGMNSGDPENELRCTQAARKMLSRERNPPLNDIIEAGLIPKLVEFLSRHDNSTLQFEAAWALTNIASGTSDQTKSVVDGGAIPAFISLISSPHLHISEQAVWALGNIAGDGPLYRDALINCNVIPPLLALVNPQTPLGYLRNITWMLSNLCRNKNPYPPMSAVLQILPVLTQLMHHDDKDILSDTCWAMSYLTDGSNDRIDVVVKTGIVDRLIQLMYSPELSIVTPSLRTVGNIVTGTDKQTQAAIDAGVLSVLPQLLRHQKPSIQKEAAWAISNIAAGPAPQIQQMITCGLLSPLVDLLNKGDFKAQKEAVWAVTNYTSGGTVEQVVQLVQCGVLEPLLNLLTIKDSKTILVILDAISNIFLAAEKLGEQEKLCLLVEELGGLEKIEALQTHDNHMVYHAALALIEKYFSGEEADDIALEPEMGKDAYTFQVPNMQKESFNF
Sequence of importin-β (P52297 whole entry): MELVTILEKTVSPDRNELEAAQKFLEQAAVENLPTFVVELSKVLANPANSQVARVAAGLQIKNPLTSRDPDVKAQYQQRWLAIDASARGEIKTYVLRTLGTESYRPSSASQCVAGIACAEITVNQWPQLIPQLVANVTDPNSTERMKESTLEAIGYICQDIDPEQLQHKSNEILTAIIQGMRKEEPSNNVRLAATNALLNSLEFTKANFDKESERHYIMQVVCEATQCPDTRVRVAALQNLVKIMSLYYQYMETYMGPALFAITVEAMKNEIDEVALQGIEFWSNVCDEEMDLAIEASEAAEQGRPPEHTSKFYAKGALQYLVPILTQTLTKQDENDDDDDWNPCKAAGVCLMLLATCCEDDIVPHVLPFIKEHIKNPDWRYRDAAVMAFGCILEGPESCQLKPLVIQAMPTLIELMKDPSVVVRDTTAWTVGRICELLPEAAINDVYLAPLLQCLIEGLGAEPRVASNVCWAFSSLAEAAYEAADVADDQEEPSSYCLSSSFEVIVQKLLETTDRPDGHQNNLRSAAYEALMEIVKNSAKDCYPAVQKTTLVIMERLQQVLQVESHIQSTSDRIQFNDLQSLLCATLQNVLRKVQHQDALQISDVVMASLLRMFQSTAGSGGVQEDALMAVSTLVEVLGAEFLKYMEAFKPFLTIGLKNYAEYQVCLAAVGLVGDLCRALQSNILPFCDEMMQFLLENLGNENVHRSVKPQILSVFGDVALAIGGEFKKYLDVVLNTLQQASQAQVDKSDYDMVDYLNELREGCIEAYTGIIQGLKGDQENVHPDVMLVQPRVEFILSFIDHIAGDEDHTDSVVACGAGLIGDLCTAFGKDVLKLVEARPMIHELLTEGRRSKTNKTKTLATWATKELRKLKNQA
Sequence of TPX2 C-terminus (a.a. 480-716) (Xenopus laevis) (Q6NUF4 480-716): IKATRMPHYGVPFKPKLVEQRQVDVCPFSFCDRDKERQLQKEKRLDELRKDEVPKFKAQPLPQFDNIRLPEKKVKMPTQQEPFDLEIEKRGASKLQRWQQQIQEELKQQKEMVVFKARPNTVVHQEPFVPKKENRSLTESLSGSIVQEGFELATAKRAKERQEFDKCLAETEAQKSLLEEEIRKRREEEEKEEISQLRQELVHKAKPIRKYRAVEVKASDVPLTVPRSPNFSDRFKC

With “importin-αΔIBB (importin-α without the importin-β binding domain) (domain or fragment)”, the results for the Kd in assay [1] and in assay [3] were 410 nM and 45 nM, respectively. This substance also came in with a fold loss of binding against the wild type 1-178 TPX2 construct in assay [2] of 10 fold.

For the substance “importin-β (from UniProt P52297 1-876) (natural protein)”, in assay [4], the Kd is above 4000 nM.
